In the nanobody polyreactivity screen of Harvey et al. (2022):

Test: yeast display, Sf9 membrane polyspecificity reagent, FACS + sequencing; frameworks hold sequencing errors
Summary of the method: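 A nanobody's polyreactivity label depends on the gate it was sorted from. Yeast display cells were stained with 10% biotinylated, detergent-solubilized Sf9 membrane reagent for 1 hour at 4 °C, enriched on streptavidin microbeads and sorted by FACS. The low and high (top ~1%) gates were set on anti-HA fluorescence for expression and streptavidin fluorescence for reagent binding.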

Sequence	polyreactivity (PSR sort gate)
QVQLVDSGGGLVQAGGSLRLSCAASGSIFRYYAMGWYRQAPGKEREFVAAITYSGGSTHYADSVKGRFTISRDNEKNTVYLQMNSLKPEDTAVYYCAADYYWRVHYGYWGLGTQVTVSS	high polyreactivity
QVQLVDSGGGLVQAGGSLRLSCAASGSIFSFYAMGGSRQAPGKERELVAAIDGGGSTDYADSVKGRFTISRDHAKYTVYLQMNSLKPEDTAVYDCAARDIYHYDWGQGTQVTVSS	low polyreactivity
QVQLVDSGGGLVQAGGSLRLSCAASGSIFVRYTMGWYRQAAGKERELVAGIRTNGSSTYYADSVKGRFTISRDNAKNTVYLQMNSLKPEDTAVYYCAARLYRYFRQYDYWGQGTQVTVSS	low polyreactivity
QVQLVDSGGGLVQAGGSLRLSCAASGSIFYPYAMGWYRQAPGKEREFVAGITTRGGSTYYADSVKGRFTISRDNAKNTVYLQMNSLKPEDTAVYYCAAYSSVWPNFGYWGQGTQVTVSS	high polyreactivity
QVQLVDSGGGLVQAGGSLRLSCAASGSIFYQYAMGWYRQAPGKQRELVAAISRSGGSTYYADSVKGRFTISRDNAKNTVYLQMISLKPEDTAVYYCAARAVRAAYDYWGLGTQVTVSS	low polyreactivity
QVQLVDSGGGLVQAGGSLRLSCAASGSIFYTNAMGWYRQAPGKERELVAAISYGGTTTYADSVKGRFTISRDNAKNTVYLQMNSLKPEDTAVYYCNADWLYYGYWGYGHIWYDYWGQGTQVTVSS	low polyreactivity
QVQLVDSGGGLVQAGGSLRLSCAASGSIFYYYAMVWYRQAPGKERELVAAISRNGGSTSYADSVKGRFTISRDNAKNTVYLQMNSLKPEDTAVYYCAVRKFHYFRYEYWGQGTQVTVSS	low polyreactivity
QVQLVDSGGGLVQAGGSLRLSCAASGSILAGNVMGWYRQAPGKERELVASITFRGSRTYYADSVKGRFTISRDNAKNTVYLQMNSLKPEDTAVYYCNADVWASGSRGEGYWGQGTQVTVSS	low polyreactivity
QVQLVDSGGGLVQAGGSLRLSCAASGSILAINTMGWYRPAPGKEREFVAAISAGGTSTYYADSVKGRFTISRDNAKNTVSLQMNSLKPEDTAVYYCAAIFIIYRTGYRRYYWGQGTQVTVSS	high polyreactivity
QVQLVDSGGGLVQAGGSLRLSCAASGSILYPYAMGWDRQAPGKEREFVAAITYGGGRTYYADSVKGRFTISRDNAKNTVYLQMNSLKPEDTAVYYCAAKSVYAGRRRIYYLWYDYWGQGTQVTVSS	high polyreactivity
QVQLVDSGGGLVQAGGSLRLSCAASGSIYGFYAMGWYRQAPGKERELVATIRTSGGNTYYADSVKGRFTISRDNAKNTVYLQLKSMKPEDTAVYYCAAAGYLYSGDVHYLYTYEYWGQRTQVTVSS	low polyreactivity
QVQLVDSGGGLVQAGGSLRLSCAASGSTFDGNTMGWYRQAPGKERELVATITNSGGNTYYADSVKGRFTISRDNAKNTVYLQMNSLKPEDTAVYYCNARRTSWRRLGNFYYWGQGTQVTVSS	high polyreactivity
QVQLVDSGGGLVQAGGSLRLSCAASGSTFITNTMGWDRQSPGKDRELVAAISQSGTRTYYANSVKGRFTISRDNAKNTVYLQMNSLKPEDTAVYYCAADRQRYTSSSRKGLGYCGQGTQVTVSS	high polyreactivity
QVQLVDSGGGLVQAGGSLRLSCAASGSTFRLYAMGWYRQAPGKERALVAAITRGGITYYADSVKGRFTISRDNAKNTVYFQMNSLKPEDTAVYYCAATTFGPYALYPRYYYWGQGTQVTVSS	high polyreactivity
QVQLVDSGGGLVQAGGSLRLSCAASGSTFRRNAMGWYRQAPGKERELVAAITSSGGGSTYYADSVKGRFTISRDNAKNSVYLQMNSLKPEDSAVYYCAKDFWYRSYDYWGQGTQVTVSS	low polyreactivity
QVQLVDSGGGLVQAGGSLRLSCAASGSTFTYNSMGGYRQAPGKERELVAAITWSSDITYYADSVKGRFTISRDNAKNTVYLQMNSLIAEDTAVYYCAAYLFGPSIDDYPAFYYDYGYWGQGTQVTVSS	low polyreactivity
QVQLVDSGGGLVQAGGSLRLSCAASGSTFYYNAMGWYRQAPGKERELVARISRSGGSTYADSVKGRFTISRDNAKNTFYLQMNSLKPEDTAVYYCNADAYGTPEFTSYAVCYDYWGQGTQVTVSS	low polyreactivity
QVQLVDSGGGLVQAGGSLRLSCAASGSTFYYNAMGWYRQAPGKERELVARISRSGGSTYADSVKGRFTISRDNAKNTVYLQMNSMKPEDTAVYYCNAVAYGTPEFTSYAVRYDYWGQGTQVTVSS	low polyreactivity
QVQLVDSGGGLVQAGGSLRLSCAASGSTRRGYAMGWYRQAPGKERELVASISRRGGSTYYADSVKGRFTISRDNAKNTVYLQMKSLKTEVTAVYYCAATGRRGYGYGYWGQGTQVTVSS	high polyreactivity
QVQLVDSGGGLVQAGGSLRLSCAASGTTFYSYAMGWYRQAPGKERELVAAISSSGDSTYYADSVKGRFTISRDNAKNTVYLQMNSLKPEDTAVYYCAARKGELWFPQGGYNYWGQGTQVTVLS	low polyreactivity
QVQLVDSGGGLVQAGGSLRLSCAASGYTFEAYAMGWYRQAPGKERELVAAINYSGGSTYADSVKGRFTISRDNAKNTVYLQMNSLKPEDTAVYYCATRLYGYWPYGFDYWGQGTQVTVSS	low polyreactivity
QVQLVDSGGGLVQAGGSLRLSCAAYGSIFKYYCMGWYRQAPGKERELVATISKRGGSTYYADSVKGRFTISRDNAKNSVYLQMNSLKPEDTAVYYCAKDSPALRPLTWQQLYDFWGQGTQVTVSS	high polyreactivity

Sequence	polyreactivity (PSR sort gate)
QVQLVDSGGGLVQAGGSLRLSCAAYGSNLYYAMGWYIQAPGKERELVATITRGGSTYYADSVKGRFTISRDNAKNTVYLQMNSLKPEDTAVYYCAARRAVRVGYYWHDISSYDYWGQGTQVTVSS	low polyreactivity
QVQLVDSGGGLVQAGGSLRLSCAAYGSTDKPNAMGWYRQAPGKQRELVAANSGSGGSTYYADTVKGRFTISRDNAKNTVYLQMNSLKPEDTAVYYCAAKRTGNGYPRSGYSRYEYWGQGTQVTVSS	high polyreactivity
QVQLVDSGGGLVQAGGSLRLSCADSGFTFSWNVMGRYRQAPGKEREYVAAISTSYGGRYYADSVKGRFTISRDNAKNTVDLQMNSLKPEDTAVYYCNDDIVGFQWGYDYWGQGTQVTVSA	low polyreactivity
QVQLVDSGGGLVQAGGSLRLSCPASGSTFQRYAMGWYRQAPGKERELVAAISSSGVRTYYADSVKGRFTISRDNAKNTVYLQMNSLKPEDTAVYYCATGYIFRYRQSAYDYWGQGTQVTVSS	high polyreactivity
QVQLVDSGGGLVQAGGSLRLSCSASGIIIKWYTMVWYRQAPGKEREFVAAISYGGGSTSYADSVKGRFTISRDNAKNTVYLQMNSLKPEDTAVYYCAVVWQGAYSRTNYYYWGQGTQVTVSS	low polyreactivity
QVQLVDSGGGLVQAGGSLRLSCSASGSTFSVYAMGWYRQAPGKERELVAAITSGGSTNYADSVKGRFTISRDNAKNTVYLQMNSLKPEDTAVFYCNAYYVLIGYQPHWGYYWGQGTQVTVSS	low polyreactivity
QVQLVDSGGGLVQAGGSLRLSCSASGYNFIGYAMGWYRQAPGKERELVATITSGGSTNYADSVKGRFTISRDNAKNTVYLQMNSLNPEDTAVYYCAAGRGRYFYSWRYLYAIFDYWGQGTQVTVSS	low polyreactivity
QVQLVDSGGGLVQAGGSLRLTCAASGRIFYYNPMGWNRQAPGIVRELVDAINMISGSTYYADSVKGRFTISRDNAKNSVYFQMNSLKPEDTAVYYCAAQGVDTRIFFSFGFDYWGQGTQVNVSS	high polyreactivity
QVQLVDSGGGLVQAGGSLRVSCAASGNTFVTNAMGWSRQAPGKERELDAAITASVTSTYYADSVKGRFTISRDNAKITVYLQLNSLKPEDPAVYYCAAKTYSRKRVRMDYWGQGTQVTVSS	high polyreactivity
QVQLVDSGGGLVQAGGSLRVSCAASGSILPLNAMGWYRQGPGKERELVADISWSGGDTYYADSVKGRFTISRDNAKNTVYLQMNSLKPEDTSVYYCAADLHTELYKMDYWGQGTQVTVSS	low polyreactivity
QVQLVDSGGGLVQAGGSRRVSCAASAFTFLWNAMGWYRQAPGKEREMVAAINGNSGNTYYADSVKGRFTLSVDNAKNTVYLQMNSMKAEDTAVYYCAKQGNNIPCYRPYGDYYYWGQGTQVTVSS	low polyreactivity
QVQLVDSGGGLVQAGGTLRLSCAASGRTIYRNDMGWYRQAPGQERELVAAITSSGGTTYADSVKGRFTISRDNAKNTGYLQMNSLKPEDTAVYYCAAVYAYPNIYDYWGQGTQVTVSS	low polyreactivity
QVQLVDSGGGLVQAGVSLRLSCAASGFTFVFYAMGWYRQAPGKERELVAAISGRGGSTYYADSVKGRFTISRDNAKNTVYLQMNSLKPEDTAVYYCNALYVYRSVANFDYWGQGTQVTVSS	high polyreactivity
QVQLVDSGGGLVQAVGSLRLSCAASGGIFVPNAMGWYRQAHGKVRELVAAIYYSGGRTYYADSVKGSFTISRDNAKNTVYLQMNRLKPEDTAVYYCAAEYWFVFHHYNYFGQGTQVTVSS	high polyreactivity
QVQLVDSGGGLVQAVGSLRLSCAASGITFDEYAMGWYRQAPGKERELVAAISVSGGDTYYADSVKGRFTISRDNAKNNVYLQMNSLKPEDTAVYYCNARWGTPYYIQDFDYWGLGTQVTVSS	low polyreactivity
QVQLVDSGGGVVQAGGSLRLSCPASGIILRRYAMGWYRQAQGKERELVARISYRGGRTNYADSVKGRFTISRDNAKNTVYLQMNSLKPEDTAVYYCAAVAWDYHEGTAYNYWGQGTQVTVSS	high polyreactivity
QVQLVDSGGGVVQEGGSLRLSCAASGIISLFNVMGWYRQAPGKERELVASITGRGGSTFYADSVKGRFTISRDNAKNTVYLQMNSLQPEESGVYYCATDTGDTYPVNGLYDYWGHGTQVTVSS	low polyreactivity
QVQLVDSGGRLVQAGGSLRLSCAASGFIFGTNAMGWYRQAPGKERELVASISSTGGSTYYADSVKGRCTISRDNAKNTVYLQMNILKPEETAVYYCAADPYPEYIRYLPGVDYSGQGTQVTVSS	low polyreactivity
QVQLVDSGGVLVQAGGSLRLICAASGNTFAYYTLGWYRQAPGKEMELVAAIDYSGGSTYYADSVKGRFTISRDNAKNTVYLQMNSLKPEDTAVYYCASDYRWHFSESLGWFYEYGYWGQGTQVTVSS	low polyreactivity
QVQLVDSRGGLVQAGGSLRLSCAASGIIFGYYAMGWYRQAPGKERELVAAITWSGGSTYYADSVKGSFTISRDNAKNTVYLQMNSLKPEDTAVYYCAASAYVQPYDYWGQGTQVTVSS	high polyreactivity
QVQLVDSRGGLVQAGGSLRLSCAASGSTYLRNVMGSYRQAPGKERELVAAISSRGGSTHYADSVKGRFTISRDNAKNTVYLQMNSMKPEDTAVYYSNAERTAAQYVRAAYDFWGEGTQVTVSS	low polyreactivity
